Target: CRM1^HA (high affinity mutant of CRM1) (UniProt Q6P5F9)
Assay: ITC; TFP-NES, YFP-NES or NES peptides at 35–180 μM titrated onto CRM1^HA at 2–14 μM; 20°C; 20 mM HEPES pH 7.4, 50 mM NaCl, 1 mM TCEP, 1 mM MgCl2; independent binding sites model

| Substance | Kd [nM] | dH [kcal/mol] | stoichiometry N |
| --- | --- | --- | --- |
| TFP-mutA(NES) (domain or fragment) | 2380 | -14.5 | 0.54 |
| TFP-mutE(NES) (domain or fragment) | 1040 | -15.4 | 0.8 |
| YFP-PKI(NES) (domain or fragment) | 18 | -13.7 | 1.01 |
| peptide AL (long NES motif of NPM mutant A, with Ile284) | 57 | -18.1 | 0.33 |
| peptide EL (long NES motif of NPM mutant E, with Ile284) | 31 | -19.8 | 0.51 |
| peptide ES (short NES motif of NPM mutant E) | 76 | -20.8 | 0.4 |
